This note sets out measurements from paper PMC9234330, “Identification of Two Novel Fluorinases From Amycolatopsis sp. CA-128772 and Methanosaeta sp. PtaU1.Bin055 and a Mutant With Improved Catalytic Efficiency With Native Substrate” (Frontiers in Bioengineering and Biotechnology, 2022).

Substrate in this data set: C[S+](CC[C@H](N)C(=O)O)C[C@H]1O[C@@H](n2cnc3c(N)ncnc32)[C@H](O)[C@@H]1O
Description: purified protein. Conditions: KF 100 mM (methods text says 200 mM), Tris-HCl 50 mM pH 7.8, 50 °C, 10 min. Type of data set: biochemical, Amycolatopsis sp. CA-128772.

In general, Km refers to the concentration of substrate that gives half-maximal velocity. One may read the kcat as the number of substrate molecules converted per active site and unit of time at saturation. One may read the kcat/Km as the second-order rate constant that governs catalysis at low substrate concentration.

B1: Fam (Amycolatopsis sp. CA-128772) (protein)
chain: MAKPSRPIIAFMSDLGITDDSVAQCKGLMLSVCPDVTIVDVCHTMKPWDVEEGARYIVDLPRLFPEGTVFATTTYPATGTTTRSVALRIKQAAKGGARGQWAGSGAGFERAEGSYIYIAPNNGLLTSVIEEHGYVEAYEVSSTEVIPEQPEPTFYSREMVALPSAHLAAGFPLEKVGRPLADDEIVRFERAKPAQNDDGELVGVVTAIDHPFGNVWTNIHREDLEKLGAGYGTRLRITLDEVLPFDLPLSPTFADAGPIGTPVAYLSSRGYLALARNAASLAYPYNLNAGISVRVVAA
For the protein B1, the Km amounted to 77.17 ± 14.10 µM, the kcat turned out to be 0.00285 s⁻¹ and the kcat/Km amounted to 37 M⁻¹ s⁻¹.
